Results on two molecules are retold here after patent publication US20200308299A1 (NATIONAL UNIVERSITY CORPORATION KOCHI UNIVERSITY, published 2020).

For assay [1], the target named is T1, mouse Glypican-1 expressed on LLC-mGPC1-16 cells (mouse, UniProt Q9QZF2 24-529).
T1 sequence: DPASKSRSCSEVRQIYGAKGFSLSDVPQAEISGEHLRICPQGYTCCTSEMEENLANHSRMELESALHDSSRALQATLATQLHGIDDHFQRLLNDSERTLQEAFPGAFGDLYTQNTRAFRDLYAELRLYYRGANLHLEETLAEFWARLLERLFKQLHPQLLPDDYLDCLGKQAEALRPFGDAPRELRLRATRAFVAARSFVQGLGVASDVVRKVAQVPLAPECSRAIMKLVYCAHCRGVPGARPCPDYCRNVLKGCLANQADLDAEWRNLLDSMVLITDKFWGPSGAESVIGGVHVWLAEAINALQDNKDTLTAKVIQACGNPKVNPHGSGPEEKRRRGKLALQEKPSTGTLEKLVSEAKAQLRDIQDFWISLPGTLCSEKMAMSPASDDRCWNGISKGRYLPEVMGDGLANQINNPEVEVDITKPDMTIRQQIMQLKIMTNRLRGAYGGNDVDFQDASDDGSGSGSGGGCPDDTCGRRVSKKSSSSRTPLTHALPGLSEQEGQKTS
Description: cell-based or functional assay.

Assay [2] addresses T2, recombinant human Glypican-1 protein (R&D Systems, CF, 4519-GP-050) (human, UniProt P35052 24-530).
T2 construct: Bought protein; also called recombinant human GPC1
T2 sequence: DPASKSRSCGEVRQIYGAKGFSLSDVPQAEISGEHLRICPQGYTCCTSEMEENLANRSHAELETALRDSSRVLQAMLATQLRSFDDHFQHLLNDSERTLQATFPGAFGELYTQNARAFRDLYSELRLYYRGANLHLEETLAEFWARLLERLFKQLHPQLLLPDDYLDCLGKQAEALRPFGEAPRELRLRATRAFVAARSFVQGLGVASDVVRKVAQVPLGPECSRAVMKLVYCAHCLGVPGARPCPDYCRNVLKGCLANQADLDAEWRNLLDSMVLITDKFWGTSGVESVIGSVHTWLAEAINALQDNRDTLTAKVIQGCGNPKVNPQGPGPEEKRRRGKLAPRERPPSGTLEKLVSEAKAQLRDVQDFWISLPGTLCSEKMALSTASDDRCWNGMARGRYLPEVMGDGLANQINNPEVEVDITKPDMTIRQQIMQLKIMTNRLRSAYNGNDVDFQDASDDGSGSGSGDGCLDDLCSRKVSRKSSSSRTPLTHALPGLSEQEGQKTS
Description: ELISA on plate-coated recombinant human GPC1.

The target of assay [3] is T3, human Glypican-1 on the surface of human cancer cell strains (TE8, TE14 and others) (human, UniProt P35052 24-530).
T3 construct: Endogenous GPC1 of the cell strains; also called GPC1; GPC-1
T3 sequence: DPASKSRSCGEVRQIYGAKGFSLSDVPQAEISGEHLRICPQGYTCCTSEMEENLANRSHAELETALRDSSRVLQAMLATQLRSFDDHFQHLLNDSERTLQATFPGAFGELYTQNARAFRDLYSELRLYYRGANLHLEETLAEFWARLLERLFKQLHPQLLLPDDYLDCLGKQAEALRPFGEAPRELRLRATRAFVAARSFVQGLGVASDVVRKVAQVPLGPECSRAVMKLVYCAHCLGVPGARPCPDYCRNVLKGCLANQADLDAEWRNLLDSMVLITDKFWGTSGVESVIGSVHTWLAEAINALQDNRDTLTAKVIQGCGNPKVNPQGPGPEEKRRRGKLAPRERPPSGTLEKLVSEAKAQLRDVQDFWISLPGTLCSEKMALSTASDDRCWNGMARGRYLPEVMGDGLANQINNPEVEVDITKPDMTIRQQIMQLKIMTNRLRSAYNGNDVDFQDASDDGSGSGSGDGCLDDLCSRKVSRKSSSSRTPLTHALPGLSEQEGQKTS
The assay is described as follows: flow cytometry on TE8 cells, biotin-labelled 02b006 and streptavidin-PE.

Assay [4] concerns the target T4, human Glypican-1 (human, UniProt P35052 24-530, limits assumed).
T4 construct: also called human GPC1
T4 sequence: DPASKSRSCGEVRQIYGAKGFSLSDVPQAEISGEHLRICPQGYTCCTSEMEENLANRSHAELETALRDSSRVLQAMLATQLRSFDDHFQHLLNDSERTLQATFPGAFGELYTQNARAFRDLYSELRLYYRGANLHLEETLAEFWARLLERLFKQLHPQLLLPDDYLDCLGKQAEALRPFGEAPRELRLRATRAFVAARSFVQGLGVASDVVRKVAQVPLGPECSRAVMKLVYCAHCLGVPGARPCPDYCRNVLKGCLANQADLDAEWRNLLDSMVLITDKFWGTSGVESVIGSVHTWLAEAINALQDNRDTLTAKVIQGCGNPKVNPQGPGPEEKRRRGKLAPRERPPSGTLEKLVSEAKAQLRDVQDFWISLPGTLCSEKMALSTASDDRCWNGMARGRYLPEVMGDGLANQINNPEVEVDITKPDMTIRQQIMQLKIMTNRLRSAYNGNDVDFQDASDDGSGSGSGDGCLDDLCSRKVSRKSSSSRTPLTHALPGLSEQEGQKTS
The assay is described as follows: phage scFv panning, ELISA on immobilised human GPC1, cell-ELISA and flow cytometry on human GPC1 transformants and TE14 (Example 1).

B1: GPC1-CL-MMAF (clone 01a033 conjugated to MC-vc-PAB-MMAF) (antibody, V domains shown)
VH: QVQLKQSGPELVKPGASVKISCKASGYSFTGYYMHWVKQSPEKSLEWIGEINPSTGDTTYNQKFKAKATLTVDKSSSTAYMQLKSLTSEDSAVYYCAREKRDDGVFAYWGQGTLVTVSS
VL: DIVMSQSPKSMSMSVGERVALSCKASENVGTYVSWYQQKPEQSPKLLIYGASNRYTGVPDRFTGSGSATDFTLTISSVQAEDLADYYCGQSYSYPLTFGAGTKLELKR
modifications: MC-vc-PAB-MMAF bound by maleimide to reduced inter-strand cysteines; DAR 4.1 (printed as 3.8 in paragraph 359)
notes: Antibody-drug conjugate of mouse IgG2a clone 01a033; also called 01a033 ADC; GPC1 ADC
For B1, the “effect of suppressing growth (CellTiter-Glo, 72 hours), LLC-mGPC1-16 against LLC-control-7” value in assay [1] turned out to be 17 fold. Also, in assay [2], the binding result is on record as “binds”.

B2: anti-Glypican-1 antibody clone K090-02b006 (antibody, mouse IgG2a, kappa, V domains shown)
VH: EVQLVESGGGLVKPGGSRKLSCAASGFTFSDYGMHWVRQAPEKGLEWVAYISSGSSTIYYADTVKGRFTISRDNAKNTLFLQMTSLRSEDTAIYYCVRHSYYNYDIGGYYAMDYWGQGTSVTVSS
VL: DIVLTQSPSSLSASLGERVSLTCRASQEISGYLSWLQQKPDGTIKRLIYAASTLDSGVPKRFSGSRSGSDYSLTISSLESEDFADYYCLQYASYPLTFGAGTKLEIKR
notes: also called biotin-labeled 02b006; biotin-labeled anti-GPC1 antibody 02b006
As to B2, the binding result in assay [3] and in assay [4] was “binds” throughout.
